Laboratory results taken from US20110312883A1 (NTF THERAPEUTICS, published 2011).
Where a chain is given by its changes, count along the chain named.

T1: recombinant human GFRα2-Fc chimera (R&D Systems) (human, UniProt O00451 22-441)
T1 construct: Bought reagent; also called GFRalpha2-Fc fusion protein; soluble recombinant GFRα2-Fc chimera; not shown: Fc portion of human IgG1
T1 sequence (looked up): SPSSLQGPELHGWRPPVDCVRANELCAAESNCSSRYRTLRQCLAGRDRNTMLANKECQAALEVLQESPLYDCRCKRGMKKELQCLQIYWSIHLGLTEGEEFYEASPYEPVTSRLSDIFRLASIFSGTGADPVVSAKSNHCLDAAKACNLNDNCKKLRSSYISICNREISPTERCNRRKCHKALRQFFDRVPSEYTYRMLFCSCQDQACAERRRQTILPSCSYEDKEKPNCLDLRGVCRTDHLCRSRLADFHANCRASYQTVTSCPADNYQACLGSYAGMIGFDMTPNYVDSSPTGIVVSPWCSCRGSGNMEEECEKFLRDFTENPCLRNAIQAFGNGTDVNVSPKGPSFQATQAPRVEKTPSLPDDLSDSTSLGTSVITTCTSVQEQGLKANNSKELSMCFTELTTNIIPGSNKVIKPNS

B1: V5-tagged wild-type neurturin (ligand)
chain: ARGKPIPNPLLGLDSTSGARLGARPCGLRELEVRVSELGLGYASDETVLFRYCAGACEAAARVYDLGLRRLRQRRRLRRERVRAQPCCRPTAYEDEVSFLDAHSRYHTVHELSARECACV
notes: Secreted from transiently transfected CHO cells and used as crude conditioned medium; also called NRTN WT; E779
B2: V5-tagged neurturin variant NV4 (ligand)
chain: B1 chain with R69A, R72Q, Q73G, R74Q, R75G, R76A, R78V, R79G, E80S
notes: Crude conditioned medium of transfected CHO cells; also called NRTN NV4; NV4 (from N4)
B3: V5-tagged neurturin variant NV2 (ligand)
chain: B1 chain with R72A, R79A, R81A
notes: Crude conditioned medium of transfected CHO cells; also called NRTN NV2; NV2 (from N2)
B4: V5-tagged neurturin variant NV3 (ligand)
chain: B1 chain with R70A, R72A, R74A, R76A, R79A
notes: Crude conditioned medium of transfected CHO cells; also called NRTN NV3; NV3 (from N3)
B5: V5-tagged neurturin variant NV1 (ligand)
chain: B1 chain with R70A, R74A, R76A
notes: Crude conditioned medium of transfected CHO cells; also called NRTN NV1; NV1 (from N1)
B6: NRTN WT (ligand)
mature neurturin monomer of the disulfide-linked homodimer: ARLGARPCGLRELEVRVSELGLGYASDETVLFRYCAGACEAAARVYDLGLRRLRQRRRLRRERVRAQPCCRPTAYEDEVSFLDAHSRYHTVHELSARECACV
notes: also called purified untagged mature wild type neurturin made by the same method as the variants
B7: neurturin variant N4 (untagged, purified) (ligand)
chain: B6 mature neurturin monomer of the disulfide-linked homodimer with R51A, R54Q, Q55G, R56Q, R57G, R58A, R60V, R61G, E62S
notes: Dimeric protein; also called NRTN N4; neurturin mutant N4
B8: neurturin variant N3 (untagged, purified) (ligand)
chain: B6 mature neurturin monomer of the disulfide-linked homodimer with R52A, R54A, R56A, R58A, R61A
notes: Dimeric protein; also called NRTN N3; neurturin mutant N3
B9: neurturin variant N2 (untagged, purified) (ligand)
chain: B6 mature neurturin monomer of the disulfide-linked homodimer with R54A, R61A, R63A
notes: Dimeric protein; also called NRTN N2; neurturin mutant N2
B10: neurturin variant N1 (untagged, purified) (ligand)
chain: B6 mature neurturin monomer of the disulfide-linked homodimer with R52A, R56A, R58A
notes: Dimeric protein; also called NRTN N1; neurturin mutant N1

These binders were tested against T1, recombinant human GFRα2-Fc chimera (R&D …) (assay: precipitation from CHO medium with GFRα2-Fc and Protein G-Sepharose, western blot).
Protocol: An aliquot of each media (400 μl) was incubated with recombinant human GFRα2-Fc chimera (0.4 μg, R&D Systems), antibodies to the V5-epitope (0.4 μg, Invitrogen) or antibodies to NRTN (0.4 μg, R&D Systems) for 1 h at +4° C. with mixing. Protein G has a strong affinity for antibodies from mouse and goat as well as for the Fc portion of human IgG₁ in the recombinant GFRα2-Fc chimera. Therefore Protein G-Sepharose was added to the samples and the incubation was continued for 1 h at +4° C. with mixing. After pelleting, the samples were eluted from the protein G-Sepharose with reducing Laemmli buffer and loaded on SDS-PAGE. For Western blot analysis of the V5-tagged variants of NRTN, an anti-V5 antibody (Invitrogen) was used with samples loaded on SDS-PAGE under reducing conditions. For Western blot analysis of the untagged variants of NRTN, an anti-NRTN antibody (R&D Systems) was used with samples loaded on SDS-page under non-reducing conditions.

binding result | Binder
binds | B1
binds | B2
binds | B3
binds | B4
binds | B5

Each binder was assayed against T1, recombinant human GFRα2-Fc chimera (R&D …) (assay: capture on GFRα2-Fc held on Protein G spin column (after heparin column enrichment), 1.0 M NaCl wash, elution with 2.0 M MgCl2; eluate on non-reducing 15% SDS-PAGE, Coomassie stain).
Protocol: Media from NRTN-expressing CHO cells (QMCF Technology at Icosagen Ltd) was thawed at room temperature. HITRAP™ Heparin HP columns (1 ml, GE Healthcare) were equilibrated with 10 ml of 10 mM Hepes, pH 7.2 and 1-10 ml of undiluted media was applied with a syringe according to the manufacturer's instructions. The media was collected and run through the column a second time. The columns were washed with 10 ml of 0.2 M NaCl in 10 mM Hepes, pH 7.2. The NRTN enriched samples were eluted with 5×600 μl of 10 mM Hepes pH 7.2, 1.2 M NaCl. Fractions number two and three were collected and concentrated to a final volume of 50-65 μl, according to the manufacturer's instruction in AmiconUltra 0.5 ml 10K concentrators (Millipore). The samples were then diluted 1:10 with 10 mM Hepes pH 7.2 to a final concentration of NaCl around 120 mM. Soluble recombinant GFRα2-Fc chimera (10-200 μg, R&D Systems) was attached to Protein G HP SpinTrap columns (GE Healthcare) in PBS according to the manufacturer's instructions. The 1:10 diluted samples were added to the GFRα2 columns and incubated for at least one hour at +4° C. with mixing. The columns were first washed with 4×400 μl of cold 10 mM Hepes pH 7.2, 1.0 M NaCl and thereafter with 4×400 μl of cold 10 mM Hepes pH 7.2, 0.1 M NaCl. The NRTN samples were eluted with 5×200 μl of pre-warmed (25° C.) 10 mM Hepes pH 7.2, 2.0 M MgCl₂. The eluted fractions were immediately diluted (1:2) with 10 mM Hepes pH 7.2, 0.150 M NaCl and concentrated with AMICONULTRA™ 0.5 ml 10K concentrators. The samples were further diluted in the same buffer (1:2) and subsequently concentrated three times to yield a final concentration of around 125 mM MgCl₂, and 150 mM NaCl in 10 mM Hepes pH 7.2. Samples of the purified proteins as well as a commercially available batch of neurturin were analyzed using […], under non reducing conditions, and visualized via Coomassie staining.

binding result | Binder
binds | B6
binds | B7
binds | B8
binds | B9
binds | B10
